The values below come from PMC9935730.

One may read the stoichiometry N as a count of units in the complex or per binding partner.

This test has as its target Recombinant full-length Pin1, N-terminally His6-tagged (human) (UniProt Q13526). The experiment in a line: SDS-PAGE and western blot; fractions eluted from the HisTrapHP column with imidazole, 15% SDS-PAGE, HRP conjugated anti-His antibody; second band seen in the more concentrated fractions. For orientation: Immunoblotting shows a protein as a band on a membrane.

Consider “Recombinant full-length Pin1, N-terminally His6-tagged (from UniProt Q13526 1-163) (enzyme)”, for which the stoichiometry N came out at 2.
